The results in this text go back to JP2019041668A.

Assay [1] has as its target グリセルアルデヒド由来AGEs含有マウス血清アルブミン (Glycer-AGEs-MSA) (mouse) (UniProt P07724). Nature of the assay: SPR, Biacore T200; Glycer-AGEs-MSA amine-coupled on CM5 chip, antibody 0.001-100 nM as analyte. (Surface plasmon resonance follows binding to a sensor surface in real time, without labels.)
For assay [2] the target is unchanged. Briefly: SPR, Biacore T200; Glycer-AGEs-MSA amine-coupled on CM5 chip, antibody 0.8-800 nM as analyte.

Sequence of UniProt P07724 (P07724 25-608, form in doubt): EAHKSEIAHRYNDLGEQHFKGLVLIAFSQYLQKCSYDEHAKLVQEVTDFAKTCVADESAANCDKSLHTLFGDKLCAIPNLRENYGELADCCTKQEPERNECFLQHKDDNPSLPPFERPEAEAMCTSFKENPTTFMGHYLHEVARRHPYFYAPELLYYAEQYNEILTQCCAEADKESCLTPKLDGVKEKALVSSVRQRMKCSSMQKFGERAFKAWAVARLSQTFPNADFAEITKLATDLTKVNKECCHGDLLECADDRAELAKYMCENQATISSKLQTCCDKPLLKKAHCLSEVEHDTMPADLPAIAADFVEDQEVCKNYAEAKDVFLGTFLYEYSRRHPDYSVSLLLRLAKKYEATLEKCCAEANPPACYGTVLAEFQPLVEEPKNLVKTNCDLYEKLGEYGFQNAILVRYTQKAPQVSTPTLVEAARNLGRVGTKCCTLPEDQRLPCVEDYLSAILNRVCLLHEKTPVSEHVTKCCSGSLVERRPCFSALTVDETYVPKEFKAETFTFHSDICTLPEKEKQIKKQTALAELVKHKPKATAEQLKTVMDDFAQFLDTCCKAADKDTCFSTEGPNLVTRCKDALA

B1: モノクローナル抗体 6B3 (antibody, V domains shown)
VH: VKLQQSGAELVKPGASVKLSCKASGYTFTSYWMHWVKQRPGQGLEWIGEINPSNGRSNYKEKFKFKATLTVDKSSRTAYMQLSSLTSEDSAVYYCARGASWFAYWGQGTTVTVSS
VL: QIVLTQSPAIMSASPGEKVTISCSASSSVSYMYWYQQKPGSSPKPWIYRTSNLASGVPARFSGSGSGTSYSLTISSMEAEDAATYYCQQYHSYPRTFGGGTKLEIKR
For orientation: Kd means the constant that tells how readily two partners part at equilibrium. B1: the Kd in assay [1] is 47.6 nM.

B2: モノクローナル抗体 11G4 (antibody, V domains shown)
VH: VKLQESGAELVKPGTSVKLSCKASGYTFTSYWMHWVKQRPGQGLEWIGEINPSNGRSNYKEKFKFKATLTVDKSSRTAYMQLSRLTSEDSAVYYCARGASWFAYWGQGTTVTVSS
VL: ENVLTQSPTIMAASLGQKVTMTCSATSNVSSSYLHWYQQKSGASPKPLIHRTSDLASGVPTRFSGSGSGTSYSLTITSVEAEDDATYYCQQWSGYPFTFGAGTKLELKR
Molecule B2 registered an equilibrium dissociation constant (Kd) in assay [2] of 376 nM.
